Results on 22 molecules are retold here after article PMC10631449 (Journal of medicinal chemistry, 2023).

In one series the test system is MC1R. As to conditions: MC1R antagonist; cited from earlier work.
For series [1], the target named is mouse melanocortin 1 receptor (mouse) (UniProt Q01727).
For series [2], the target named is mouse melanocortin 5 receptor (mouse) (UniProt P41149).
Series [3] addresses mouse melanocortin 3 receptor (mouse) (UniProt P33033).
Series [4] has as its target mouse melanocortin 4 receptor (mouse) (UniProt P56450).
A further series addresses mMC3R (Mus musculus, UniProt P33033). Briefly: AlphaScreen cAMP agonist assay, HEK293 cells stably expressing mMC3R. In kind it is cell-based.
A short description of series [5]: Body weight after intrathecal. In kind it is in vivo. As to conditions: t = 0, 24 and 48 h; 10 or 15 nmol/mouse IT.
The next series deals with mMC5R (Mus musculus, UniProt P41149). As to conditions: read-out: antagonist Ki mMC5R; cited from earlier work.
Chain of mMC5R (P41149 whole entry): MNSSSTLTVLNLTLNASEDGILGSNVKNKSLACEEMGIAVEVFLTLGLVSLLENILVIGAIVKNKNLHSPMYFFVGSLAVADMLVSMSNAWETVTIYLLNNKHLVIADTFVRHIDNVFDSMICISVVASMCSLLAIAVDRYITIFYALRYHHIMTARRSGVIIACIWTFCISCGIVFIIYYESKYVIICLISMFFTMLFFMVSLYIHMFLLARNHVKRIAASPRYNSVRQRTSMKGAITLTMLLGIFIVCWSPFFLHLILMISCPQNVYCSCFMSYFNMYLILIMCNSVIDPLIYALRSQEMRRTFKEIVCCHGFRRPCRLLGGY
The subject of a further series is K5-noggin mice. As to conditions: administered intracutaneously; cited from earlier work.
In the next series the target is mMC1R (Mus musculus, UniProt Q01727). As to conditions: cited from earlier work.
Chain of mMC1R (Q01727 whole entry): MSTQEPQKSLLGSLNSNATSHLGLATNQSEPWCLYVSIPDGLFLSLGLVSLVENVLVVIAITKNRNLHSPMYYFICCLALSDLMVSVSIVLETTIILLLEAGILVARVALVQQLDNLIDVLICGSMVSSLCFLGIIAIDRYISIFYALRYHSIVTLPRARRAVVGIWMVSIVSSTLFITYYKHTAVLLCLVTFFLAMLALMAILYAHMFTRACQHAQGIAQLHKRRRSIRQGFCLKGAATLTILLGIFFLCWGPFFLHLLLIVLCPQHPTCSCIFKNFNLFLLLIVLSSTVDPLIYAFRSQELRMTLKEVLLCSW
A further series deals with hMC1R. As to conditions: read-out: antagonist Ki hMC1R; competitive antagonist; cited from earlier work.

Bridge positions count the residues as written; N and C are the ends. Square brackets hold non-standard residues; d marks the D form. Peptide text beside a SMILES is read from it. dPhe(4-I) = N[C@H](Cc1ccc(I)cc1)C(=O)O; 2Nal = N[C@@H](Cc1ccc2ccccc2c1)C(=O)O; hArg = N=C(N)NCCCC[C@H](N)C(=O)O; Cit = NC(=O)NCCC[C@H](N)C(=O)O; Nle = CCCC[C@H](N)C(=O)O; Orn = NCCC[C@H](N)C(=O)O; Dab = NCC[C@H](N)C(=O)O; Dap = NC[C@H](N)C(=O)O

Chain of mouse melanocortin 1 receptor (mouse) (Q01727 whole entry): as above
Chain of mouse melanocortin 5 receptor (mouse) (P41149 whole entry): as the sequence (P41149 whole entry) above
Chain of mouse melanocortin 3 receptor (mouse) (P33033 whole entry): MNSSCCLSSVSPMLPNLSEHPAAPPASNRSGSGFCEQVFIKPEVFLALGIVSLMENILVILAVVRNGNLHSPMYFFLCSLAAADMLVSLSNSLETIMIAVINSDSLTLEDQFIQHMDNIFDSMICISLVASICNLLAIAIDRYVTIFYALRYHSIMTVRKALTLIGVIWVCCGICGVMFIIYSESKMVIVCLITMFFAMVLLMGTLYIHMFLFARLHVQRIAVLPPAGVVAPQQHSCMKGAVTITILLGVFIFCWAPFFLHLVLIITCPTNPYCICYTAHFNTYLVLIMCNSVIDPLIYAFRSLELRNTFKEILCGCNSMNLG
Chain of mouse melanocortin 4 receptor (mouse) (P56450 whole entry): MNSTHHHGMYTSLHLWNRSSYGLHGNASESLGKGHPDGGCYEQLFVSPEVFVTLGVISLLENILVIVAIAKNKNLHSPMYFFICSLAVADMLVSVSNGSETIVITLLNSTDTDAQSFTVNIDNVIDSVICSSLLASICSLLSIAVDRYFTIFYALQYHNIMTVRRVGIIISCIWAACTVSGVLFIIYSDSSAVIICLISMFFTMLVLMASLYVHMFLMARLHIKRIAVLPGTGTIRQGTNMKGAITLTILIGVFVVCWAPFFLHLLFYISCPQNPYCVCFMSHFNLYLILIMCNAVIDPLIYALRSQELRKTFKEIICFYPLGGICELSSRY
Chain of mMC3R (P33033 whole entry): as the sequence (P33033 whole entry) above

For the molecule Ac-[Nle]DW[dF][Nle]WK-NH2, the “pA2 in the frog skin assay” value in the series with MC1R is reported as 8.4.

For Ac-[dPhe(4-I)]R[2Nal]E-NH2, the agonist EC50, cAMP AlphaScreen on HEK293 cells expressing the receptor in series [1], in [2], in [3] and in [4] was above 100 µM throughout.

As for Ac-[dPhe(4-I)]R[2Nal][dR]-NH2, the agonist EC50, cAMP AlphaScreen on HEK293 cells expressing the receptor in [1], in [2], in [3] and in series [4] was above 100 µM throughout.

For the molecule Ac-[dPhe(4-I)]E[2Nal]R-NH2, the agonist EC50, cAMP AlphaScreen on HEK293 cells expressing the receptor in series [1], in series [2], in [3] and in series [4] was above 100 µM in each case.

For the molecule `CC(=O)N[C@H](Cc1ccc(I)cc1)C(=O)N[C@@H](CCCNC(=N)N)C(=O)N[C@@H](Cc1ccc2ccccc2c1)C(=O)N[C@@H](Cc1c[nH]cn1)C(N)=O` [Peptide 12, Ac-DPhe(pI)-Arg-Nal(2’)-His-NH2] (Ac-[dPhe(4-I)]R[2Nal]H-NH2), on mMC3R, the “percent maximal stimulatory response (compared to NDP-MSH) observed at 100 μM, mMC3R” value amounted to 35% @ 100 μM.

On to `CC(=O)N[C@H](Cc1ccc(I)cc1)C(=O)N[C@@H](CCCNC(=N)N)C(=O)N[C@@H](Cc1ccc2ccccc2c1)C(=O)N[C@@H](CCCN)C(N)=O` [Peptide 14, Ac-DPhe(pI)-Arg-Nal(2’)-Orn-NH2] (Ac-[dPhe(4-I)]R[2Nal][Orn]-NH2), for which the “body weights compared to vehicle” value in [5] is reported as “not statistically significantly different”.

In the case of Ac-[dPhe(4-I)]R[2Nal][Orn]-NH2, the agonist EC50, cAMP AlphaScreen on HEK293 cells expressing the receptor in series [2], in series [3] and in [4] was above 100 µM each time.

In the case of Ac-[dPhe(4-I)]R[2Nal]R-NH2, the agonist EC50, cAMP AlphaScreen on HEK293 cells expressing the receptor in series [2] is above 100 µM.

Regarding Ac-[dPhe(4-I)]H[2Nal]R-NH2, the agonist EC50, cAMP AlphaScreen on HEK293 cells expressing the receptor in series [2], in series [3] and in [4] was above 100 µM in each case.

For the molecule Ac-[dPhe(4-I)]R[2Nal]K-NH2, the agonist EC50, cAMP AlphaScreen on HEK293 cells expressing the receptor in series [2], in series [3] and in [4] was above 100 µM each time.

For Ac-[dPhe(4-I)]R[2Nal][Dab]-NH2, the agonist EC50, cAMP AlphaScreen on HEK293 cells expressing the receptor in series [2], in series [3] and in [4] was above 100 µM in each case.

With Ac-[dPhe(4-I)]R[2Nal][hArg]-NH2, the agonist EC50, cAMP AlphaScreen on HEK293 cells expressing the receptor in [2], in [3] and in series [4] was above 100 µM in each case.

Take Ac-[dPhe(4-I)]R[2Nal]H-NH2: the agonist EC50, cAMP AlphaScreen on HEK293 cells expressing the receptor in series [2] and in series [4] was above 100 µM throughout.

In the case of Ac-[dPhe(4-I)][dK][2Nal]R-NH2, the agonist EC50, cAMP AlphaScreen on HEK293 cells expressing the receptor in series [1], in series [2], in series [3] and in series [4] was above 100 µM in each case.

Regarding Ac-[dPhe(4-I)][Cit][2Nal]R-NH2, the agonist EC50, cAMP AlphaScreen on HEK293 cells expressing the receptor in series [2], in series [3] and in series [4] was above 100 µM throughout.

Consider Ac-[dPhe(4-I)]K[2Nal]R-NH2, for which the agonist EC50, cAMP AlphaScreen on HEK293 cells expressing the receptor in series [2], in [3] and in series [4] was above 100 µM throughout.

As to Ac-[dPhe(4-I)]R[2Nal][Cit]-NH2, the agonist EC50, cAMP AlphaScreen on HEK293 cells expressing the receptor in [1], in series [2], in series [3] and in series [4] was above 100 µM in each case.

Ac-[dPhe(4-I)]R[2Nal][Dap]-NH2: the agonist EC50, cAMP AlphaScreen on HEK293 cells expressing the receptor in series [2], in [3] and in series [4] was above 100 µM each time.

Take “Ac-Nle-c[Asp-(1-Me)His-DNal(2’)-Arg-DNal(2’)-Lys]-NH2”: at mMC5R, the Ki was 0.063 µM.

For the molecule Ac-[dPhe(4-I)]R[2Nal][dK]-NH2, the agonist EC50, cAMP AlphaScreen on HEK293 cells expressing the receptor in series [1], in series [2], in series [3] and in [4] was above 100 µM throughout.

In the case of H-YERFFNAF[Dap]Y-NH2 (lactam 2-9), the “coloration of K5-noggin mice” value in the series on K5-noggin mice is on record as “restored wild-type coloration”. Further, on mMC1R, the “pA2 mMC1R” value was 5.92. The Ki at mMC1R (read-out: antagonist Ki mMC1R) is 1.2 µM.

“c[Gly-Cpg-DNal(2’)-Arg-Trp-Glu]-Val-Val-Gly-NH2”: the Ki at hMC1R is 0.053 µM.
